Experimental data published in PMC11472046 (2024).

How the values were obtained:
H3K9me3 mononucleosome = H3K9me3 mononucleosome (trimethyl-lysine at 9 (H3K9me3)); assay: apparent K1/2 by EMSA
H3K9me0 mononucleosome = assay: apparent K1/2 by EMSA

B1: Chp2-WT (recombinant) (natural protein)
chain: MVKSADLDLMNSIISESDENFSPPPFTVEEAENSINNKSSTASLESPQNGSWHPSLYGLSVPEKTHIQNSLDLYSHGNSGSQKTHNVSFSCEIRKVKSSKLSPISNMEDSEDKKEEDESSSYKNEFKSSSSASVSSNFEKTSGSDDHNSQSPVPLNEGFEYIASSGSEDKNSDEEFAVEMILDSRMKKDGSGFQYYLKWEGYDDPSDNTWNDEEDCAGCLELIDAYWESRGGKPDLSSLIRLTRSRARSSNEASYVEKDESSNSDDSISYKRRRSRNAANRITDYVDSDLSESSMKEKQSKIEKYMKSDKSSKNFKPPFQKKSWEDLVDCVKTVQQLDNGKLIAKIKWKNGYVSTHDNIIIHQKCPLKIIEYYEAHIKFT
H3K9me3 mononucleosome
  Kd: 66 nM
H3K9me0 mononucleosome
  Kd: 134 nM

B2: Chp2 W199A (recombinant) (natural protein)
chain: MVKSADLDLMNSIISESDENFSPPPFTVEEAENSINNKSSTASLESPQNGSWHPSLYGLSVPEKTHIQNSLDLYSHGNSGSQKTHNVSFSCEIRKVKSSKLSPISNMEDSEDKKEEDESSSYKNEFKSSSSASVSSNFEKTSGSDDHNSQSPVPLNEGFEYIASSGSEDKNSDEEFAVEMILDSRMKKDGSGFQYYLKAEGYDDPSDNTWNDEEDCAGCLELIDAYWESRGGKPDLSSLIRLTRSRARSSNEASYVEKDESSNSDDSISYKRRRSRNAANRITDYVDSDLSESSMKEKQSKIEKYMKSDKSSKNFKPPFQKKSWEDLVDCVKTVQQLDNGKLIAKIKWKNGYVSTHDNIIIHQKCPLKIIEYYEAHIKFT
H3K9me3 mononucleosome
  Kd: 145 nM
H3K9me0 mononucleosome
  Kd: 135 nM
